Results taken from US20150299268A1 (UNIVERSITY OF MARYLAND BALTIMORE, published 2015).

What was measured:
BaL-gp120 = target: T1, BaL-gp120 (HIV-1 BaL); experiment: ELISA
T1 construct: domain: gp120; also called monomeric gp120; monomeric BaL gp120

FLSC R/T = target: T2, FLSC R/T (HIV-1, UniProt P01730 26-208); experiment: ELISA
T2 construct: not shown: linker of FLSC not described

gp120-b12-ScFV = experiment: ELISA
gp120-VRC01-ScFV = experiment: ELISA
gp120-JR4-ScFV = experiment: ELISA
gp120-JR48.1-ScFV = experiment: ELISA
BaL-gp120-E31A = target: T3, BaL-gp120-E31A (HIV-1 BaL); experiment: capture ELISA
T3 construct: domain: gp120

BaL-gp120-E32A = target: T4, BaL-gp120-E32A (HIV-1 BaL); experiment: capture ELISA
T4 construct: domain: gp120

BaL-gp120-W35A = target: T5, BaL-gp120-W35A (HIV-1 BaL); experiment: capture ELISA
T5 construct: domain: gp120

BaL-gp120-Y39A = target: T6, BaL-gp120-Y39A (HIV-1 BaL); experiment: capture ELISA
T6 construct: domain: gp120

BaL-gp120-Y40A = target: T7, BaL-gp120-Y40A (HIV-1 BaL); experiment: capture ELISA
T7 construct: domain: gp120

BaL-gp120-W45A = target: T8, BaL-gp120-W45A (HIV-1 BaL); experiment: capture ELISA
T8 construct: domain: gp120

BaL-gp120-E47A = target: T9, BaL-gp120-E47A (HIV-1 BaL); experiment: capture ELISA
T9 construct: domain: gp120

BaL-gp120-D57A = target: T10, BaL-gp120-D57A (HIV-1 BaL); experiment: capture ELISA
T10 construct: domain: gp120

BaL-gp120-R58AK59A = target: T11, BaL-gp120-R58AK59A (HIV-1 BaL); experiment: capture ELISA
T11 construct: domain: gp120

BaL-gp120-Y61A = target: T12, BaL-gp120-Y61A (HIV-1 BaL); experiment: capture ELISA
T12 construct: domain: gp120

BaL-gp120-D62A = target: T13, BaL-gp120-D62A (HIV-1 BaL); experiment: capture ELISA
T13 construct: domain: gp120

BaL-gp120-V68A = target: T14, BaL-gp120-V68A (HIV-1 BaL); experiment: capture ELISA
T14 construct: domain: gp120

BaL-gp120-P493A = target: T15, BaL-gp120-P493A (HIV-1 BaL); experiment: capture ELISA
T15 construct: domain: gp120

BaL-gp120-G495A = target: T16, BaL-gp120-G495A (HIV-1 BaL); experiment: capture ELISA
T16 construct: domain: gp120

BaL-gp120-P498A = target: T17, BaL-gp120-P498A (HIV-1 BaL); experiment: capture ELISA
T17 construct: domain: gp120

BaL-gp120-T162A = target: T18, BaL-gp120-T162A (HIV-1 BaL); experiment: capture ELISA
T18 construct: domain: gp120; glycan mutant

BaL-gp120-T303A = target: T19, BaL-gp120-T303A (HIV-1 BaL); experiment: capture ELISA
T19 construct: domain: gp120; glycan mutant, V3 region

B1: N60-B1.1 (antibody, V domains shown)
VH: QLQLQESGPGLVKPSGTLSLTCSVSGGSMNGRNIYWAWIRQTPGKGLEWIGSVDVSDEDAGRTFYKWPIKSRASISADTSKNQFSLKLSSVTVADTGVYYCARETLYYVGNGYYYPLDVFYYNYYMDVWGKGTTVSVSS
VL: not shown
notes: also called bnAb N60-B1.1
- Fold of Ab needed for ELISA binding OD equal to half max on gp120 (BaL-gp120): 1 fold
- Fold of Ab needed for ELISA binding OD equal to half max on gp120 (FLSC R/T): 16.4 fold
- Fold of Ab needed for ELISA binding OD equal to half max on gp120 (gp120-b12-ScFV): 0.01 fold
- Fold of Ab needed for ELISA binding OD equal to half max on gp120 (gp120-VRC01-ScFV): 0.03 fold
- Fold of Ab needed for ELISA binding OD equal to half max on gp120 (gp120-JR4-ScFV): 0.04 fold
- Fold of Ab needed for ELISA binding OD equal to half max on gp120 (gp120-JR48.1-ScFV): 0.14 fold
- % Binding (BaL-gp120-E31A): 103%
- % Binding (BaL-gp120-E32A): 108%
- % Binding (BaL-gp120-W35A): 132%
- % Binding (BaL-gp120-Y39A): 121%
- % Binding (BaL-gp120-Y40A): 139%
- % Binding (BaL-gp120-W45A): 84%
- % Binding (BaL-gp120-E47A): 78%
- % Binding (BaL-gp120-D57A): 98%
- % Binding (BaL-gp120-R58AK59A): 92%
- % Binding (BaL-gp120-Y61A): 92%
- % Binding (BaL-gp120-D62A): 80%
- % Binding (BaL-gp120-V68A): 68%
- % Binding (BaL-gp120-P493A): 92%
- % Binding (BaL-gp120-G495A): 106%
- % Binding (BaL-gp120-P498A): 101%
- % Binding (BaL-gp120-T162A): 100%
- % Binding (BaL-gp120-T303A): 2%
